The target in one data set is T1, CsTAL (Clostridium scatologenes, UniProt A0A0E3M5J5).
T1 construct: gene CSCA_1088; recombinant, pET-28a(+), N-terminal His6 tag, E. coli BL21(DE3), Ni-NTA
T1 sequence (A0A0E3M5J5 1-281): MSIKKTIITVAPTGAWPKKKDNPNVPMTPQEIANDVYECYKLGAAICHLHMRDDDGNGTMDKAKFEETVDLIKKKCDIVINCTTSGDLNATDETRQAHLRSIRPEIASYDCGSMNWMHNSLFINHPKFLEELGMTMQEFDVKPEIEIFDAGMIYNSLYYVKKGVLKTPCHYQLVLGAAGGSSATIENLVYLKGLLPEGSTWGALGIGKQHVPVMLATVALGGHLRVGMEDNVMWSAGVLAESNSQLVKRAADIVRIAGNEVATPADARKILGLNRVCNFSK
The experiment in a line: coupled assays (PfHBDH or CaHAD), NADH at […] nm. Conditions: 50 mM Tris-HCl pH 7.5, room temperature. The data set is classed as biochemical.

Substrate in data set [1]: NC(=O)C1=CN([C@@H]2O[C@H](COP(=O)(O)OP(=O)(O)OC[C@H]3O[C@@H](n4cnc5c(N)ncnc54)[C@H](OP(=O)(O)O)[C@@H]3O)[C@@H](O)[C@H]2O)C=CC1
Nature of the data set: purified protein. Type of data set: biochemical, Clostridium scatologenes. The settings on record: 50 mM Tris-HCl pH 7.5, room temperature.

Substrate in data set [2]: Oc1cc(O)cc(O)c1
Nature of the data set: purified protein. Conditions: co-substrate NADPH, 50 mM Tris-HCl pH 7.5, room temperature.

Substrate in data set [3]: CC(=O)CC(=O)O
The experiment in a line: purified protein. The data set is classed as biochemical, Clostridium scatologenes. The settings on record: 1.0 mM NADPH, 50 mM Tris-HCl pH 7.5, room temperature.

Substrate in data set [4]: NC(=O)C1=CN([C@@H]2O[C@H](COP(=O)(O)OP(=O)(O)OC[C@H]3O[C@@H](n4cnc5c(N)ncnc54)[C@H](O)[C@@H]3O)[C@@H](O)[C@H]2O)C=CC1
The experiment in a line: purified protein. Type of data set: biochemical, Clostridium scatologenes. Conditions: 2.0 mM triacetate (saturating), 50 mM Tris-HCl pH 7.5, room temperature.

Substrate in data set [5]: CC(=O)CC(=O)CC(=O)O
The experiment in a line: purified protein. Type of data set: biochemical, Clostridium scatologenes. Conditions: 1.0 mM NADPH, 50 mM Tris-HCl pH 7.5, room temperature.

Substrate in data set [6]: O=C1CC(=O)CC(O)C1
The experiment in a line: purified protein. The data set is classed as biochemical, Clostridium scatologenes. The settings on record: 2 mM Mn2+, 50 mM Tris-HCl pH 7.5, room temperature.

For `CC(=O)SCCNC(=O)CCNC(=O)[C@H](O)C(C)(C)COP(=O)(O)OP(=O)(O)OC[C@H]1O[C@@H](n2cnc3c(N)ncnc32)[C@H](O)[C@@H]1OP(=O)(O)O` [acetyl-CoA], the “coupled assays (PfHBDH or CaHAD), NADH at 340 nm” value at CsTAL (co-substrate triacetate) was “Incubation of CsTAL with triacetate and acetyl-CoA resulted in the formation of acetoacetate and acetoacetyl-CoA”.
For `CC(=O)CC(=O)CC(=O)O` [TAA, 3,5-dioxohexanoate], the “coupled assays (PfHBDH or CaHAD), NADH at 340 nm” value at CsTAL (co-substrate acetyl-CoA) is “Incubation of CsTAL with triacetate and acetyl-CoA resulted in the formation of acetoacetate and acetoacetyl-CoA”.

B1: CsPGR (Clostridium scatologenes) (protein)
chain: MVDKKLINNLFDVKGKVALLTGATGALGKAVAFGYGQAGMKVFITGRSDDKCKALCNELKVDGIECGYSIGDPAIEADVIKIVDDCVAKFGEINVLLTAAGYNHPQPIVEQDLTEWQKIMNSDVQGTWLFCKYVGQKMIDQGKGGKVILVSSARSKMGMAGYTGYCTAKAGIDLMAQSLACEWTAKYGINVNTINPTVFRSDLTEWMFDPESAVYKNFLRRLPIGRLGEPEDFVGPCIFLASSASDFMTGANVATEGGYWAN
notes: recombinant, pET-28a(+), N-terminal His6 tag, E. coli BL21(DE3), Ni-NTA
The term Km denotes the substrate concentration at which the rate is half of its maximum. For orientation: kcat means the maximal rate divided by the concentration of active sites. Consider B1, for which, in “purified protein [1]” (co-substrate phloroglucinol), the Km stood at 210 µM and the turnover number (kcat) lay in the range of 22.4 to 25.3 s⁻¹. In addition, in “purified protein [2]”, the Km was 300 µM and the kcat lay in the range of 22.4 to 25.3 s⁻¹.

B2: CsTfD (Clostridium scatologenes) (protein)
chain: MGSIIKNITVFGPGMMGSGIAQVFAGCKDSHVTVFIREKFEYECIDKIKGNLQVMKEKGIVTDADIAELFSRITLTEDMKAATKDADFIIECIPENMELKQNLFKNLEDLCREDTIFATNTSVMSITEISEKSKLKTRIVGTHFWNPPYLIPLVEVVKSDYTSEEVMNKTMELLKTVKKHPIRVNKDVPGFVANRLQHALWREAISIVENGIADAKTVDEAVKYSFGLRLPHLGPIENADMVGTDLTLSIHDYILKHLDKSIEAAPIVRKMVEAGELGFKSGKGFQEWTPEQAKASNESLREYLLKVLYGK
notes: recombinant, codon-optimized synthetic gene, pET-28a(+), N-terminal His6 tag, E. coli BL21(DE3), Ni-NTA
Take B2: the Km was 3690 µM in the data set “purified protein [3]”, 130 µM in “purified protein [4]”, 550 µM in “purified protein [5]” and 1700 µM in the data set “purified protein [1]” (2.0 mM triacetate (saturating)).

B3: CsDPGC (Clostridium scatologenes) (protein)
chain: MGKKVYVDLTHPFSADIPRWPYFVKPVIDSMHSLAKGGVLTQRIDCVQHTGTHCDAPRHVMETEFNGKRARYTHEMPVDAYMGDAVCLEIKAGRWELITAAHLEDACKRANIKPEELEGMVVCLNTGMHRKFDDSKEYYHYSCGTGVEAGKWFVKYKVKCVAMDMQALDHPLHTAMGNNGATRLNLLGASGKPITEEYKEQFGEEAYAEFDKDEYIRIHGKEAYDAKFGDLEEIGCWGTWEPCHKEMLGHGIVGVENLGGDLDKVSGKRFRFLCLPIRWYMGDGSMVRCVAEIDEDNVNKDVADRVYTYGGF
notes: recombinant, pET-28a(+), N-terminal His6 tag, E. coli BL21(DE3), Ni-NTA; mostly apo as purified, Mn2+ added
With B3, in the data set “purified protein [6]”, the Km was found to be 190 ± 40 µM and the kcat came out at 1.04 ± 0.10 s⁻¹.
